We go through seven molecules from US20230399361A1, “MACROCYCLIC PEPTIDES” (UNIVERSITY OF NOTRE DAME DU LAC, priority 2022, published 2023).

*1 amine or outer side, *2 acyl side, *3 side chain or, on linkers, in order; H or OH if unused. Where a SMILES comes first, the peptide text is derived from it. Primed or numbered codes have the meaning given here. [ ]: non-standard residue; d: D form. aTyr = Tyr with an NH2 on the backbone amide nitrogen (N-amino residue), NN([C@@H](Cc1ccc(O[*:3])cc1)C(=O)[*:2])[*:1]; aIle″ = Ile with an NH2 on the backbone amide nitrogen (N-amino residue), CC[C@H](C)[C@@H](C(=O)[*:2])N(N)[*:1]; aVal″ = Val with an NH2 on the backbone amide nitrogen (N-amino residue), CC(C)[C@@H](C(=O)[*:2])N(N)[*:1]; N(NH2)Lys = NCCCC[C@H](NN)C(=O)O

The nature of data set [1]: Human serum stability assay. The note with it: after 24 h, 37° C., HPLC.
Protocol: Human Serum Stability Assay. The stability of NAPs in 25% human serum (MilliporeSigma) was assessed by HPLC. The reaction was started by adding NAPs at a final concentration of 500 μM in pre-warmed serum. The mixture was incubated at 37° C. for 24 h. A 100 μL aliquot of the reaction mixture was taken out at 0, 1, 4, and 24 h and was mixed with an equal volume of 20% trichloroacetic acid and incubated at 4° C. for 15 min to precipitate serum proteins. After centrifugation at 12,000 rpm for 10 min, the supernatant was collected and mixed with an internal standard (1 mg/mL Cbz-Tyr-OH dissolved in MeCN) and stored at −20° C. Samples were then analyzed by LC-MS, and the percentage of peptide remaining was calculated by integrating peaks.
Another data set concerns the target T1, AcPHF6 (Homo sapiens, UniProt P10636).
T1 construct: AcPHF6; Ac-Val-Gln-Ile-Val-Tyr-Lys-NH2; 790.4833
The note with it: Chem. Eur. J. 2017, 23, 9618; cited from earlier work.

Data set [2] deals with T2, tauP301L (Homo sapiens, UniProt P10636, P618L).
T2 construct: we expressed and purified full-length tau featuring a P301L mutation; His6 (N); made in house; host or cells: E. coli BL21 (DE3)
T2 sequence (P10636 1-383 isoform P10636-6 P243L): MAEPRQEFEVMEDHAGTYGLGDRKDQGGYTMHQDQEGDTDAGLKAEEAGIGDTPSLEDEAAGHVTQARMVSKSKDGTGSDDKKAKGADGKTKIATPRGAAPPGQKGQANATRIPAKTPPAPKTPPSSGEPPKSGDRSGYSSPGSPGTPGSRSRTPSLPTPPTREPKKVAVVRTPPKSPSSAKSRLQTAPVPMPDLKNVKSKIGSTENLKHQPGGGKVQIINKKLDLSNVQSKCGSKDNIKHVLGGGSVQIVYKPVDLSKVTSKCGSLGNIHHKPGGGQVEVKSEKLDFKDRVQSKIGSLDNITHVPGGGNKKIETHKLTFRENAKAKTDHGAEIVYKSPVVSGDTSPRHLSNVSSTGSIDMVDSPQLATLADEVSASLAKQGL
The data set is described as follows: ThT fluorescence aggregation assay of recombinant tauP301L. The following applies: 20 μM NAP (2-fold molar excess), 10 μM tauP301L, heparin, 48 h. Format: biochemical. An excerpt: (§1) NAP Tau Mimics Inhibit Tau Fibrilization In Vitro. We chose thioflavin T (ThT), an amyloid specific fluorescent dye that binds to β-sheet assemblies, to first evaluate the effect of NAPs on recombinant tau aggregation. For these studies, we expressed and purified full-length tau featuring a P301L mutation frequently observed in patients with frontotemporal dementia and Parkinsonism linked to chromosome 17 (FTDP-17). This missense mutation leads to local structure destabilization around the amyloid-forming region resulting in faster aggregation. Recombinant tauP301L aggregated in the presence of equimolar heparin sulfate (t1/2=6.5±0.4 h) starting with a very short 0.5 h lag phase, followed by a 24 h exponential growth phase. […] Compounds 2 and 4 are mono- and diaminated hexapeptides derived from the R2 PHF6* aggregation-prone sequence, whereas compounds 5, 6, 12, and 13 are all derived from the R3 PHF6 sequence. Several other NAPs had no effect on endpoint ThT fluorescence or lacked consistent inhibition across repeated experiments. […] NaOAc buffer, as evidenced by intense ThT fluorescence after 48 h (FIG. 1B).
Inhibition of full-length tau aggregation by mxyl-NAPs in a ThT assay. […] TauP301L ([…]) aggregated upon incubation with heparin over the course of 2 days, leading to high ThT fluorescence. […] We also synthesized linear and scrambled controls corresponding to each of the NAP inhibitors.
ThT Fluorescence Aggregation Assay. Recombinant tauP301L (10 μM final concentration) and NAP inhibitors (20 μM final concentration) were mixed in an aggregation buffer (100 mM sodium acetate, 10 μM ThT, 10 μM heparin, 2 mM DTT, and 0.5% DMSO, pH: 7.4) in a 96-well clear bottom black plate with a final reaction volume of 200 μL. The plate was then sealed with a clear sealing film and allowed to incubate at 37° C. with continuous shaking in a Biotek Synergy H1 microplate reader. An automated method was used to carry out ThT fluorescence measurements at an excitation wavelength of 444 nm and an emission wavelength of 485 nm at an interval of every 5 min for 48 h. Experiments were carried out in technical replicates on at least 2 different days. Every experiment included control wells that lacked tauP301L, heparin, or NAPs. The average signal from control wells lacking tau was used to subtract the background fluorescence, and the average of the first and last 10 data points of tau+heparin (no inhibitor) wells, after blank subtraction, was used to normalize the data. All data plots were generated with SigmaPlot.

Data set [3] in a line: Self-aggregation of peptides alone by ThT fluorescence. The note with it: incubated alone in aq. NaOAc buffer, 48 h. The class given is physicochemical.
Source text: as §1
Design and synthesis of aggregation-resistant backbone-aminated derivatives of mxyl-AD. The data above support the hypothesis that mxyl-AD mimetic macrocycle can engage in native-like hydrophobic cross-b interactions as well as edge-to-edge H-bonds along the fibril axis. We next sought to employ mxyl-AD as a template for the design of tau seeding inhibitors that could potentially cap fibril growth and block propagation. This required us to incorporate a chemical modification onto mxyl-AD that would preclude its ability to self-assemble without disrupting its capacity to adopt the conformation required to bind tau. We therefore designed two backbone N-amino peptide (NAP) derivatives of our tau mimic, mxyl-NAP1 and mxyl-NAP2 (Scheme 1). Each of these analogues features a backbone amide substitution that precludes canonical b-sheet H-bonding along one edge of the macrocycle, while leaving the other edge intact to engage the tau protein. […] Both mxyl-NAP1 and mxyl-NAP2, which feature a single backbone N-amino group within the amyloidogenic PHF6 module, were prepared on solid support starting from Fmoc-protected N-amino dipeptides.

Data set [4] concerns the target T2, tauP301L. The data set is described as follows: Transmission electron microscopy of heparin-induced tauP301L fibrils. The class given is biochemical. The following applies: 10 μM tauP301L + heparin, 20 μM NAP (2-fold molar excess), 96 h. The procedure:
This is consistent with previous reports showing that the endpoint ThT fluorescence and fibrilization lag time for full-length tau are particularly resistant to perturbation by inhibitors. […] To confirm the effect of NAPs on the growth of mature tau fibrils, we used transmission electron microscopy (TEM) to visualize the morphology and maturity of fibrillar species. Heparin-induced tauP301L fibrils were allowed to grow over 96 h in the presence or absence of inhibitors. Untreated tauP301L afforded large, helical, and amyloid-like filamentous fibrils.
Inhibition of full-length tau fibrilization by mxyl-NAPs in TEM. To confirm the results from ThT assays, we used TEM to visualize tauP301L fibrils in the absence or presence of synthesized NAPs. As expected, heparin-induced tauP301L formed dense networks of mature fibrils (FIG. 8).
Transmission Electron Microscopy. For analyzing fibrils by TEM, aggregation was carried out under conditions similar to the assay performed above but with ThT excluded and a final reaction volume of 100 μL. Samples were incubated in a microcentrifuge tube for 4 days at 37° C. with a mixing speed of 100 rpm. A 10 μL aliquot of the sample was then applied to 400-meshed formvar-/carbon-coated copper grids and negative-stained with 2% uranyl acetate. Micrographs were obtained on a JEOL 2011 transmission electron microscope at 200 kV.

The target in data set [5] is Human tauP301L (0N4R) with an N-terminal His6 tag (human), P10636. The data set can be described thus: cell-based or functional assay.
Human tauP301L (0N4R) with an N-terminal His6 tag (human), P10636, sequence (P10636 other isoform, or with tags, fused parts or gaps): as the sequence (P10636 1-383 isoform P10636-6 P243L) above, with L243P counted along it

Turning to `CC[C@H](C)[C@H](NC(=O)[C@@H](N)CC(C)C)C(=O)N[C@H](C(=O)N[C@@H](CCCNC(=N)N)C(=O)N[C@@H](CC(C)C)C(=O)N[C@@H](CCC(=O)O)C(=O)N[C@@H](CC(N)=O)C(=O)N[C@H](C(N)=O)[C@@H](C)O)[C@@H](C)O` [H-LITRLENT-NH2] (H-LITRLENT-NH2), the “intact peptide in 25% human serum” value in data set [1] was “rapidly degraded”.

Regarding “Ac-VPIVYK-NH2 [proline-containing analogue of PHF6 from the literature (Segal and co-workers)]”, the “aggregation of AcPHF6 in vitro” value in the data set with AcPHF6 is given as “inhibits the aggregation”. As for “Ac-Val-Gln-aIle-Ile-Asn-Lys-NH2 (Ac-VQ[aIle″]INK-NH2) [Compound 2]”, the “endpoint ThT fluorescence of tauP301L” value with tauP301L [2] was “significantly reduce”. In addition, in data set [3], the “self-aggregation, ThT fluorescence of peptide alone” value (from here on “self-aggregation, ThT fluorescence”) was “no such fluorescence”. Further, the “tauP301L fibril morphology by TEM” value in the data set with tauP301L [4] is reported as “short, immature rod-like fibrils”. “Ac-Val-Gln-aIle-Val-Tyr-Lys-NH2 (Ac-VQ[aIle″]VYK-NH2) [Compound 6]”: in the data set with tauP301L [2], the “endpoint ThT fluorescence of tauP301L” value is recorded as “significantly reduce”. For the same molecule, the “self-aggregation, ThT fluorescence” value in data set [3] is “no such fluorescence”. Moreover, in the data set with tauP301L [4], the “tauP301L fibril morphology by TEM” value was “short, immature rod-like fibrils”. As for “Ac-aVal-Gln-Ile-Val-Tyr-Lys-NH2 (Ac-[aVal″]QIVYK-NH2) [Compound 5]”, in the data set with tauP301L [2], the “endpoint ThT fluorescence of tauP301L” value is “significantly reduce”. Further, the “self-aggregation, ThT fluorescence” value in data set [3] was “no such fluorescence”. The “tauP301L fibril morphology by TEM” value with tauP301L [4] is listed as “short, immature rod-like fibrils”.

Ac-VQI[aVal″]Y[N(NH2)Lys]-NH2 [Ac-Val-Gln-Ile-aVal-Tyr-aLys-NH2 (13)] showed a fibril capping IC50 in cells (seeding of tau-RD(LM)-YFP in HEK293 biosensor cells by pre-formed tauP301L fibrils) in data set [5] of 5 µM. In turn, Ac-VQ[aIle″]V[aTyr]K-NH2 [Ac-Val-Gln-aIle-Val-aTyr-Lys-NH2 (12)] gave a fibril capping IC50 in cells (seeding of tau-RD(LM)-YFP in HEK293 biosensor cells by pre-formed tauP301L fibrils) in data set [5] of 5 µM.
